Laboratory results: patent US20260055368A1 (KIROMIC BIOPHARMA, published 2026)

Legend:
[1] = target: MSLN isoform 1 (Mesothelin canonical polypeptide) (Homo sapiens (Human)) (UniProt Q13421); assay: flow cytometry on Lenti-X 293T cells transiently expressing MSLN isoform 1 (EGFP-gated)
[2] = target: Mesothelin isoform 2 (IsoMSLN) (Homo sapiens (Human)) (UniProt Q13421); assay: flow cytometry on Lenti-X 293T cells transiently expressing MSLN isoform 2 (EGFP-gated)
[3] = target: MSLN isoform 1 (Mesothelin canonical polypeptide) (Homo sapiens (Human), UniProt Q13421 37-598); assay: flow cytometry on Lenti-X 293T cells transiently expressing MSLN isoform 1
MSLN isoform 1 (Mesothelin canonical polypeptide), sequence (Q13421 other isoform, or with tags, fused parts or gaps limits assumed): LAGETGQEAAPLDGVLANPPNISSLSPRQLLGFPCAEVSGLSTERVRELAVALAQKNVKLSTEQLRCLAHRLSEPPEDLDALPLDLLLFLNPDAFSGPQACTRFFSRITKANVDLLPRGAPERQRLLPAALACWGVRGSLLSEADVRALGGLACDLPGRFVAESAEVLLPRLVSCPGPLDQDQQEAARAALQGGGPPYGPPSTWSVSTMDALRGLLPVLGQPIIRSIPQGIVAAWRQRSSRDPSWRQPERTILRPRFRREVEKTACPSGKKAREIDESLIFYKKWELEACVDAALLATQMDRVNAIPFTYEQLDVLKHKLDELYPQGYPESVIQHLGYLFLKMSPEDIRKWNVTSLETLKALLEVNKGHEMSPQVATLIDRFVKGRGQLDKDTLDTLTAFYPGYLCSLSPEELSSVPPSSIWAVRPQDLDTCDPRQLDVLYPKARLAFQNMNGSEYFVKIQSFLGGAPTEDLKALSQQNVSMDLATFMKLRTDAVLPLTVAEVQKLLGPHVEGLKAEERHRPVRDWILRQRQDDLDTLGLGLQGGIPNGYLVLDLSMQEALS
Description: (§1) FIGS. 13A-13C show detection of cell surface expression of MSLN isoform 1 and 2 on the tumor cell surface by anti-isoMSLN-specific antibodies. FIG. 13A: the binding curve of different MSLN antibody clones in MSLN isoform 1 or isoform 2 overexpressing 293T cells. MSLN isoform 1 or 2 were transiently expressed in Lenti-X 293T cells; 48 hrs after transfection the cells were harvested and stained for different anti-MSLN antibody or mIgG1 isotype control (with different antibody concentration). MSLN-expressing cells were gated based on EGFP expression. The antibody binding MFI is plot along with the antibody concentration. FIG. 13B: flow cytometry staining of NCI H226 and Hela tumor cell lines with different anti-MSLN antibody clones. FIG. 13C: binding curve of increasing concentration of anti-IsoMSLN antibody clones to NCI H226 cells. The positive percentage of MSLN is plotted versus the antibody concentration.
(§2) Cell transfection and flow cytometry. […] 3 days after transfection, the transfected cells were harvested, counted, and wash once with FACS buffer, and resuspended in 100 μl FACS buffer containing […] human FcR blocker (BD Bioscience) per 0.1 million cells for 10 min, 4° C. […] Samples were acquired with NovoCyte 3000 and analyzed by NovoExpress (ACEA Biosciences Inc).

[4] = target: T1, Mesothelin isoform 2 (IsoMSLN) (Homo sapiens (Human), UniProt Q13421 37-598); assay: flow cytometry on Lenti-X 293T cells transiently expressing MSLN isoform 2 (EGFP-gated)
T1 construct: It was transiently expressed in Lenti-X 293T cells and is endogenous on NCI H226 cells; also called MSLN isoform 2; IsoMSLN2
T1 sequence (Q13421 37-606 limits assumed, form in doubt): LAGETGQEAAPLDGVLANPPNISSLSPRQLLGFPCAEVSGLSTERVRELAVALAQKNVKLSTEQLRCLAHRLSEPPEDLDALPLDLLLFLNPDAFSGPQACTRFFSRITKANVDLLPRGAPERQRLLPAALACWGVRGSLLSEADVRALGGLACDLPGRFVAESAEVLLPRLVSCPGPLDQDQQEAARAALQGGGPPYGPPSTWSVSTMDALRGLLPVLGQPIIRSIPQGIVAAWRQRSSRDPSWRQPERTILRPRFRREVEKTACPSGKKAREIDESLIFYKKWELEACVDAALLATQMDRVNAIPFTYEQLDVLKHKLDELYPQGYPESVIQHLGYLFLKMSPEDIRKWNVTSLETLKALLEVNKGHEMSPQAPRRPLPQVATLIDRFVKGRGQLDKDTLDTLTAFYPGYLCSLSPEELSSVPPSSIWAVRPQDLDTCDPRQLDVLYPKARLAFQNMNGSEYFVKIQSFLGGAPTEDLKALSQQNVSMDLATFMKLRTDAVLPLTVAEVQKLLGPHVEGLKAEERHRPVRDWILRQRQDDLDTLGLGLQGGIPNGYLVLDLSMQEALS
Description: as §1, §2

Mesothelin isoform 2 (IsoMSLN) (Homo sapiens (Human)), sequence (Q13421 37-606 limits assumed, form in doubt): as above
MSLN isoform 1 (Mesothelin canonical polypeptide) (Homo sapiens (Human)), sequence (Q13421 other isoform, or with tags, fused parts or gaps limits assumed): as the sequence (Q13421 other isoform, or with tags, fused parts or gaps limits assumed) above

Molecule | EC50 [1] [µg/mL] | EC50 [2] [µg/mL] | binding result [3] | EC50 [4] [µg/mL]
Anti-MSLN mAb clone K1 (antibody) | 0.152 | 0.106 | – | –
1B6 monoclonal antibody (Binding Molecule A) (antibody, V domains shown, also called 1B6 antibody; 1B6 clone) VH: EVKLVESGGGLVKPGGSLKLSCEASGFTFSRYAMSWVRHTPEKRLAWVASITFGGDPYYPDGLKGRFTISRDNTRNILYLQMNSLRSEDTAMYYCVRHESWFAYWGQGTLVTVSA VL: DVLMTQTPLSLPVSLGEQVSISCRSSQTIVHTDGNIYLEWYLQNPGQSPRLLIYKISNRFSGVPDRFSGSGSGTDFTLKISRVEAEDLGIYYCFQASHVPYTFGGGTKLEIK | – | – | no binding | 0.073
